This experiment has as its target T1, Wild-type human ABCG2 with an N-terminal GFP tag (human, UniProt Q9UNQ0).
T1 construct: ABCG2, human, wild type; also called GFP-ABCG2; WT; not shown: GFP, N-terminal, kept
In words: flow cytometry on cells; 5D3 antibody shift assay: stable GFP-ABCG2 HEK293F cells, 1 ug/mL 5D3 in PBS with 0.5% BSA, 37 °C 45 min, with or without MXN, SN38, imatinib or Ko143; goat-anti-mouse IgG-PE; gated on high GFP. Particulars: one partner purified. (In general: In flow cytometry, cells or beads pass a laser one at a time.)

T1 sequence (Q9UNQ0 whole entry): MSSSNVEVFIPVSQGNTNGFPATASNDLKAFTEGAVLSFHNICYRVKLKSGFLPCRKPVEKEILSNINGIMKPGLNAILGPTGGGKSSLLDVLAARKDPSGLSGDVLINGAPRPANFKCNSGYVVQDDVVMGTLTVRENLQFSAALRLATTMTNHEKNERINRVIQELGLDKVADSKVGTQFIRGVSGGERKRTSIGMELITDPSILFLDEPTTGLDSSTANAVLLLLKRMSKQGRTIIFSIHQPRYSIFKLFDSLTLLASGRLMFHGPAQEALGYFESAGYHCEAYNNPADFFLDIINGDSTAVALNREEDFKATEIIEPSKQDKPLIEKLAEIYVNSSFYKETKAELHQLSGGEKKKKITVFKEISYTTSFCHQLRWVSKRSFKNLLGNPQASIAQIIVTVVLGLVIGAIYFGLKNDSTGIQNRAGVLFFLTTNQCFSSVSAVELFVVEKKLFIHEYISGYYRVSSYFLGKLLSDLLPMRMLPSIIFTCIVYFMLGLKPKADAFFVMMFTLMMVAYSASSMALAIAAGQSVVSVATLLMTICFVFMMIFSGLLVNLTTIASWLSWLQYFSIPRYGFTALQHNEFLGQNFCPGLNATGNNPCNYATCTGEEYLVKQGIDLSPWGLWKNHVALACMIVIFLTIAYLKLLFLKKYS

B1: 5D3 antibody (antibody, V domains shown)
VH: QVQLQESGPGLVKPSQSLSLTCTVTGFSITSDYAWNWIRQFPGKKLEWMGYINFDGGTTYNPSLRGRISITRDTSKNQFFLQLRSVTPEDTATYYCATFYGAKGTLDYWGQGTSVTVSS
VL: DIVLTQSPSSFSVSLGDRVTISCKASGYILNRLAWYQQKPGNAPRLLISGATSLETGFPSRFSGTGSGKDYTLSISSLQTEDVGTYYCQQYWSTPWTFGGGTKLEIR
notes: the PDB entry holds the Fab only; also called conformation specific 5D3 antibody
As for B1, the binding result was “binds”.
